From IntAct's records for PubMed 21370995 come the findings set out here.

The target of the assay is kcru_mouse Ckmt1 (UniProt P30275).

In the case of “Leucine-rich repeat serine/threonine-protein kinase 2 (Homo sapiens), Q5S007 G2019S”, the “effect of a mutation on the interaction” value was “increasing interaction”.
